Source: patent US20240400652A1

Molecular target: SARS-CoV-2 spike with Y453F (SARS-CoV-2) (UniProt P0DTC2)
Test: cell-based or functional assay

For REGN10987 (antibody), which decrease in neutralization, live virus or pseudovirus (fold decrease) is on record?
The decrease in neutralization, live virus or pseudovirus (fold decrease) was 4.
